# In patent US12365905B2, “Host cells and methods for reducing isoprenoid precursors and isoprenoids by geranylgeranyl reductase” (The Regents of the University of California, priority 2018, dated 2025):
# B1: Sa-GGR: geranylgeranyl reductase from Sulfolobus acidocaldarius, InterPro M1I414, wild type (protein, listed as Sulfolobus acidocaldarius)
# chain: MKELKYDVLIIGGGFAGSSAAYQLSRRGLKILLVDSKPWNRIGDKPCGDAVSKAHFDKLGMPYPKGEELENKINGIKLYSPDMQTVWTVNGEGFELNAPLYNQRVLKEAQDRGVEIWDLTTAMKPIFEDGYVKGAVLFNRRTNEELTVYSKVVVEATGYSRSFRSKLPPELPITEDLDDKDADVAYREVLLTKEDIEDHDYLRIFIDQETSPGGYWWYFPKGKNKVNVGLGIQGGMGYPSIHEYYKKYLDKYAPDVDKSKLLVKGGALVPTRRPLYTMAWNGIIVIGDSGFTVNPVHGGGKGSAMISGYCAAKAILSAFETGDFSASGLWDMNICYVNEYGAKQASLDIFRRFLQKLSNDDINYGMKKKIIKEEDLLEASEKGDLHLSVADKAMRVISGLGRPSLLFKLKAVAESMKKIKELYLNYPRSPSSLGSWRREVDNVLTEFNKSLS
# B2: Ma1-GGR: geranylgeranyl reductase from Methanosarcina acetivorans #1, InterPro Q8TQQ6 (protein, UniProt Q8TQQ6 1-407, looked up)
# Digeranylgeranylglycerophospho …: MKDIYDVLVIGAGPAGSIAAKTAAEKGLDVLLIEKRQEIGDPVRCAEGVNKEYLKKHVEIDNSWICADLKGSRIYSPNGTKVEMAEEISGGEVGYVLERKIFDRALAEHAAKAGAEVRVKTRATGLIIEDDFVKGARLMNLGKEYEVRAKIVIGADGVESKVGRWAGIDTSLKPIDIETCAQYLIAGADIDPEYCEFYIGNEIAPGGYVWIFPKGEGKANVGVGILGNRTGKFKPRPVDYLNNFVEKKFPNAKIVEMVFGGVPVSGSIEKTSVNGLMLVGDAARQSDPITGGGILNAMDAGKIAGEAAYEAISSGDVSLEKLEEVYEKRWRETTGHDIDMSLIVKNCFINLKDEDLDSLADSLKEVKFESMRLFDLLQALFKANKKLLWDLRVLFKDAAKEVMKNRT
# Experiments:
# Assay type in all cases: biochemical
# [1] = In vitro GGR reduction of geranylgeraniol, products analysed by GC-MS; set-up: key to Geranylgeraniol (C20) reduction: +: activity detected; ++: activity higher than for other GGRs
# Experimental: (§1) Validation of enzymatic substrate reduction was determined by incubating all assays in triplicate for each respective substrate and putative GGR for 1 hour at 37° C. All assays were performed at pH 7.4 in 100 mM sodium phosphate buffer containing 30-150 μM enzyme, 200 µM FAD (Sigma-Aldrich), and 65 mM sodium dithionite (Sigma-Aldrich). Standard assays for alcohol reduction were incubated with 100 μM enzyme and 500 μM (E,E)-farnesol (Alfa-Aesar) or (E,E,E)-geranylgeraniol (Sigma-Aldrich); pyrophosphate assays were performed at 100 μM FPP or GGPP (Sigma-Aldrich). Alcohol-based assays were quenched by liquid extraction using a 3:1 (v:v) LC-grade ethyl acetate solution containing 100 μM dodecanol as a GC internal standard (Sigma-Aldrich). The organic layer was extracted and stored at −20° C. until analysis by GC-MS. Pyrophosphate assays were similarly quenched using LC-grade n-butanol (Sigma-Aldrich) 1:1 (v:v) and centrifuged at 15000×g for 2 minutes. The n-butanol layer was dried for 45 minutes at ambient temperature using a Labconco speedvac, reconstituted in 25 µL of a 62:38 (v:v) acetonitrile/50 mM ammonium carbonate solution, and stored at −20° C. until further analysis by LC-MS-TOF [33]. Characterization of enzymatic hydrolysis of isoprenoid pyrophosphate substrates by SaGGR and PfGGR was performed by quenching the enzyme reactions at 0, 2, 5, 10, 20, 40, and 60 minutes of incubation.
# (§2) Product identification and quantification of farnesol and hydrofarnesol derivatives were modified from previous detection methods. All GC-MS analyses were determined using an Agilent 6890 gas chromatography instrument coupled to an Agilent 5973 mass selective detector. 1 µL of extracted samples were injected in splitless mode onto an Agilent CycloSil-B column, with helium used as a carrier gas flowing at 1.0 mL/min. Following injection, the oven was held at 50° C. for 30 seconds, then increased to 175° C. at 35° C./min. Farnesol and hydrofarnesols were resolved by increasing the temperature 4° C./min up to 200° C., then increased to 300° C. at a rate of 35° C./min where it was held for 1.5 minutes. Geranylgeraniol and its hydrogenated derivatives were analyzed using the same injection method. After injection, the oven was held at 50° C. for 30 seconds then increased to 235° C. at 35° C./min. Hydrogeranylgeraniols were separated by increasing the oven temperature 4° C./min to 250° C., then ramped to 300° C. at a rate of 35° C./min where it was held for 1.5 minutes.
# (§3) The EI-MS detection was initiated after a solvent delay of 5.0 minutes. Detection and classification of hydrofarnesols was performed in scan mode at 9.8 scans/sec ranging from 50-250 m/z in positive ion mode. For geranylgeraniol, the same scan parameters were implemented except for the mass range, which was expanded to 50-300 m/z in positive ion mode. The electron multiplier voltage was set to a gain factor of 1, with the MS ion source and quadrupole set to 230° C. and 150° C., respectively.
# (§4) Total ion chromatograms (TIC) were integrated using Agilent Technologies Masshunter software, version 6. Product formation was determined from the TIC area for C15 or C20 alcohol products eluting at each respective retention time. Absolute product concentrations were determined from standard curves (0-200 μM) of either farnesol or geranylgeraniol assuming the TIC area of each reduced product ionizes with an equivalent efficiency to that of the unreduced substrate (FIG. 10). Subsequently, enzyme turnover numbers for isoprenoid reduction were calculated as the total number of nanomoles of prenyl units reduced per milligram of enzyme in 1 hr.
# [2] = GGR-mediated hydrolysis of prenyl pyrophosphates to monophosphates, time course by LC-MS-TOF; details: standard assay as a function of time, 0-60 minutes
# Experimental: Validation of enzymatic substrate reduction was determined by incubating all assays in triplicate for each respective substrate and putative GGR for 1 hour at 37° C. All assays were performed at pH 7.4 in 100 mM sodium phosphate buffer containing 30-150 μM enzyme, 200 µM FAD (Sigma-Aldrich), and 65 mM sodium dithionite (Sigma-Aldrich). Standard assays for alcohol reduction were incubated with 100 μM enzyme and 500 μM (E,E)-farnesol (Alfa-Aesar) or (E,E,E)-geranylgeraniol (Sigma-Aldrich); pyrophosphate assays were performed at 100 μM FPP or GGPP (Sigma-Aldrich). […]
# (§5) Data acquisition and processing were performed by the Agilent Technologies MassHunter software package. Product formation was determined using extracted ion chromatogram abundances (±0.02 Da) for each molecule's [M-H]^− mass (Table 4). […] Relative reductase reactivity among GGRs was determined by measuring the fractional abundance of singly-, doubly-, or triply-reduced products to the total ion abundance present for intact and hydrolyzed moieties. Integrated areas for hydrolyzed monophosphate products were assumed to have the same ionization intensities as their pyrophosphate counterparts, as determined by their standard curves measured from 0-120 μM (FIG. 15).
# [3] = GGR reduction of geranyl pyrophosphate; set-up: key to GPP (C10) reduction: +: activity detected; ++: activity higher than for other GGRs
# [4] = In vitro GGR reduction of geranylgeranyl pyrophosphate, products detected by LC-MS-TOF; set-up: key to GGPP (C20) reduction: +: activity detected; ++: activity higher than for other GGRs
# Experimental: as §1
# The separation of FPP, GGPP, and their reduced forms was conducted on a ZIC-pHILIC column (150 mm length, 2.1 mm internal diameter, and 5 μm particle size, Merck) using an Agilent Technologies 1200 Series Rapid Resolution high performance liquid chromatography (HPLC) system. Solvents for HPLC were purchased from HoneyWell and were of HPLC grade or higher. The mobile phases used for this analysis were A) 50 mM ammonium carbonate (Fluka, 30-33% NH3 basis) in water and B) acetonitrile. Analytes were eluted isocratically with a mobile phase composition of 62% B at a flow rate of 0.2 mL/min. The total run time of the method was 6.5 min. The temperature of the sample tray was maintained at 6° C. using an Agilent FC/ALS Thermostat. […]
# as §5
# [5] = GGR reduction of geraniol; details: FIG. 1A legend, conditions not stated
# [6] = In vitro GGR reduction of farnesyl pyrophosphate, products detected by LC-MS-TOF; set-up: key to FPP (C15) reduction: +: activity detected; ++: activity higher than for other GGRs
# Experimental: as §1, with “[…] […]” for “Validation of enzymatic substrate reduction was determined by incubating all assays in triplicate for each respective substrate and putative GGR for 1 hour at 37° C. All assays were performed at pH 7.4 in 100 mM sodium phosphate buffer containing 30-150 μM enzyme, 200 µM FAD (Sigma-Aldrich), and 65 mM sodium dithionite (Sigma-Aldrich).”
# The separation of FPP, GGPP, and their reduced forms was conducted on a ZIC-pHILIC column (150 mm length, 2.1 mm internal diameter, and 5 μm particle size, Merck) using an Agilent Technologies 1200 Series Rapid Resolution high performance liquid chromatography (HPLC) system. Solvents for HPLC were purchased from HoneyWell and were of HPLC grade or higher. The mobile phases used for this analysis were A) 50 mM ammonium carbonate (Fluka, 30-33% NH3 basis) in water and B) acetonitrile. Analytes were eluted isocratically with a mobile phase composition of 62% B at a flow rate of 0.2 mL/min. The total run time of the method was 6.5 min. The temperature of the sample tray was maintained at 6° C. using an Agilent FC/ALS Thermostat. The column compartment was set to 40° C. A sample injection volume of 2 μL was used throughout.
# The HPLC system was coupled to an Agilent Technologies 6210 time-of-flight mass spectrometer (LC-TOF-MS) by a ⅓post-column split. Contact between both instrument set-ups was established using a LAN card in order to trigger the MS into operation upon the initiation of a run cycle from the MassHunter workstation (Agilent Technologies). Electrospray ionization (ESI) was conducted in the negative ion mode and a capillary voltage of −3500 V was utilized. MS experiments were carried out in full scan mode, at 0.86 spectra/second for the detection of [M-H]^− ions. The instrument was tuned for a range of 50-1700 m/z. Prior to LC-TOF-MS analysis, the TOF-MS was calibrated via an ESI-L low concentration tuning mix (Agilent Technologies).
# as §5
# [7] = In vitro GGR reduction of farnesol, products analysed by GC-MS; set-up: key to Farnesol (C15) reduction / Farnesol (C15)-full reduction: +: activity detected; ++: activity higher than for other GGRs
# Experimental: as §1, with “triplicate for each respective substrate and putative GGR for 1 hour at 37° C. All assays were performed at pH 7.4 in 100 mM sodium phosphate” left out
# as §2, §3, §4
# [8] = 1 hr, 37° C., pH 7.4, error in brackets
# [9] = FIG. 1A legend, conditions not stated
molecule,measurement,setting,value
B1,Geranylgeraniol (C20) reduction,[1],+
same,Reduced products formed from geranylgeraniol,"[1]; 1 hour 37° C., pH 7.4","H2-, H4-, H6- and H8-geranylgeraniol"
same,Specific activity of enzymatic GGR reduction on geranylgeraniol (GGOH),[1]; [8],50 (10) nmol terpene units reduced mg^−1 enzyme hr^−1
same,Product of complete reduction of geranylgeraniol,[1]; [9],H8-GGOH
same,Enzymatic reduction of geranylgeraniol (in words),"[1]; standard assay, 1 hr, 37° C., pH 7.4",enzymatically reduce geranylgeraniol
same,Specific activity toward GGOH,"[1]; standard assay, stated as lower bound",at least 50±10 nmol terpenoids reduced per milligram of enzyme per hour
same,"Rate of first-order substrate hydrolysis, comparison",[2],occurs more quickly in SaGGR than for PfGGR
same,GPP (C10) reduction,[3],+
same,Product of GPP reduction,[3]; [9],H2-GPP
same,GGPP (C20) reduction,[4],+
same,Product of GGPP reduction,[4]; [9],H6-GGPP
same,Product of complete reduction of geraniol,[5],H4-GOH
same,FPP (C15) reduction,[6],+
same,Product of FPP reduction,[6]; [9],H4-FPP
same,Preferential / final product of FPP reduction,"[6]; SaGGR variants, pH 5.5, 50° C., kinetic time course",H4-FPP
same,FPP consumption,"[6]; after two hours of incubation at pH 5.5, 50° C.",fully consume FPP
same,Reduction of FPP (in words),[6]; standard assay conditions,could reduce FPP
same,Farnesol (C15) reduction,[7],+
same,Farnesol (C15)-full reduction,[7],+
same,Formation of fully reduced farnesol,[7]; 50° C. and pH 5.5,generated a modest amount of H6-FOH
same,Reduced products formed from farnesol,"[7]; 1 hour 37° C., pH 7.4",H2- and H4-farnesol
same,Reduction of FOH to H2-FOH or H4-FOH (in words),[7]; 1 hr incubation under standard assay conditions,found to reduce FOH
same,Specific activity of enzymatic GGR reduction on farnesol (FOH),[7]; [8],8 (1) nmol terpene units reduced mg^−1 enzyme hr^−1
same,Product of complete reduction of farnesol,[7]; [9],H6-FOH
B2,GGPP (C20) reduction,[4],+
same,Reduction of GGPP (in words),[4]; standard assay conditions,found to reduce GGPP
